Data published in patent US20230000998A1 (OSSIANIX, published 2023).

Columns and labels:
[1] = target: T1, cynomolgus TfR-1 (transferrin receptor 1), purified recombinant (cynomolgus, UniProt H9EXL1 89-760 (rhesus entry)); assay: kinetic ELISA on coated recombinant TfR-1 (Vmax at 370 nm); ND: not detected
T1 construct: also called cTfR1
Description: (§1) The TrkB fusion constructs were assessed for binding to recombinant human, mouse, rat and cynomolgus TfR1. […] When these conjugates were compared to a control VNAR-Fc (open circles), no loss of affinity for TrkB(HC2N) (squares) was observed and only minimal loss for TrkB(HV2N) (triangles).
(§2) TfR-1-binding ELISA. Nunc MaxiSorp plates (Thermo Fisher) were coated with 100 μl of 1 μg/ml of purified, recombinant mouse, human, rat or cynomolgus TfR-1, or with human serum albumin (HAS; Sigma) and incubated at 4° C. overnight. Plates were incubated with blocking buffer (2.5% non-fat dry milk in PBS with 0.1% Tween20; “PBST”) for 1 hat room temperature. Antibody or conjugate solutions were incubated in PBST for 30 min. The blocked solutions (100 μl) were transferred to the blocked plates and incubated for 1 h before washing with PBST. After washing, the plates were incubated for 30 min with a goat anti-human Fc-peroxidase antibody diluted 1:5000 (Sigma) in PBST. The plates were washed and developed with SureBlue™ TMB substrate (VWR). The development of the reaction was measured at 370 nm in real time providing data for Vmax analysis. EC50 values were calculated using 4-parametric non-linear regression (Prism).

[2] = target: T2, mouse TfR-1 (transferrin receptor 1), purified recombinant (mouse, UniProt Q62351 89-763, limits assumed); assay: as above
T2 construct: also called mTfR1
T2 sequence (Q62351 89-763 limits assumed): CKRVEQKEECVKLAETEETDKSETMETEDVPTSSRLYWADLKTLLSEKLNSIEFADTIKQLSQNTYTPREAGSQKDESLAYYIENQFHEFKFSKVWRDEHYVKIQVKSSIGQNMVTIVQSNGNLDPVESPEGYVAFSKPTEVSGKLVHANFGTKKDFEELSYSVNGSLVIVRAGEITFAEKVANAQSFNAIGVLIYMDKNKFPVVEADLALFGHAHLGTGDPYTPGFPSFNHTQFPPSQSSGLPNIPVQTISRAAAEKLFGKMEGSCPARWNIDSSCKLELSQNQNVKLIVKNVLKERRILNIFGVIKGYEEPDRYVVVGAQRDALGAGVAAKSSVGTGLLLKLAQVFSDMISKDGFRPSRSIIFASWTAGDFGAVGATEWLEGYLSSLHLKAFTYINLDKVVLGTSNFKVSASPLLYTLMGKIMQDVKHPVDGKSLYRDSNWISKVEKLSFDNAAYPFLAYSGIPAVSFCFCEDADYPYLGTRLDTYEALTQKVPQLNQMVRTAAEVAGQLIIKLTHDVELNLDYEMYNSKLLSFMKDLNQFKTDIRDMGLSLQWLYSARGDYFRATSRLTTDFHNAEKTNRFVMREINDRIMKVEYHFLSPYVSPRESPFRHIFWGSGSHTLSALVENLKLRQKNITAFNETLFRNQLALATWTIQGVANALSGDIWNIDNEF
Description: as §1, §2

[3] = target: T3, human TfR-1 (transferrin receptor 1), purified recombinant (human, UniProt P02786 89-760, limits assumed); assay: as above
T3 construct: Coated on ELISA plates at 1 ug/ml; also called hTfR1
T3 sequence (P02786 89-760 limits assumed): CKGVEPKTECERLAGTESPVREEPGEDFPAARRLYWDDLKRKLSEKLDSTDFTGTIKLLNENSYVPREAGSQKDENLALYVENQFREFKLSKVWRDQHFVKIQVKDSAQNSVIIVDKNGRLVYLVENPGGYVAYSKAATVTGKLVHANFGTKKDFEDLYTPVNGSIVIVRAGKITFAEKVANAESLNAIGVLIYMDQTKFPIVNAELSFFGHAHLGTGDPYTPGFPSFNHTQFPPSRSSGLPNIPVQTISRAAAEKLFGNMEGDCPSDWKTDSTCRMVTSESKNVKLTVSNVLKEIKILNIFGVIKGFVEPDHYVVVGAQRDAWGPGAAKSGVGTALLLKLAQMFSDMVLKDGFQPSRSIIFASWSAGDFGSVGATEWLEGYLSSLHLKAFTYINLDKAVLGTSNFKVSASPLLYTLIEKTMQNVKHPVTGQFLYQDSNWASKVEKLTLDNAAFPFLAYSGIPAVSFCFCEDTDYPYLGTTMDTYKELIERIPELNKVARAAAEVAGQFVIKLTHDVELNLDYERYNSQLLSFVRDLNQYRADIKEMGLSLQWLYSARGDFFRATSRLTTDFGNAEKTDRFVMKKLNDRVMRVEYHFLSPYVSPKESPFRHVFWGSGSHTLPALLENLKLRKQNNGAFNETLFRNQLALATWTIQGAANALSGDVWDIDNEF
Description: as §1, §2

[4] = target: T4, rat TfR-1 (transferrin receptor 1), purified recombinant (rat, UniProt Q99376 89-761, limits assumed); assay: as above
T4 construct: also called rTfR1
T4 sequence (Q99376 89-761 limits assumed): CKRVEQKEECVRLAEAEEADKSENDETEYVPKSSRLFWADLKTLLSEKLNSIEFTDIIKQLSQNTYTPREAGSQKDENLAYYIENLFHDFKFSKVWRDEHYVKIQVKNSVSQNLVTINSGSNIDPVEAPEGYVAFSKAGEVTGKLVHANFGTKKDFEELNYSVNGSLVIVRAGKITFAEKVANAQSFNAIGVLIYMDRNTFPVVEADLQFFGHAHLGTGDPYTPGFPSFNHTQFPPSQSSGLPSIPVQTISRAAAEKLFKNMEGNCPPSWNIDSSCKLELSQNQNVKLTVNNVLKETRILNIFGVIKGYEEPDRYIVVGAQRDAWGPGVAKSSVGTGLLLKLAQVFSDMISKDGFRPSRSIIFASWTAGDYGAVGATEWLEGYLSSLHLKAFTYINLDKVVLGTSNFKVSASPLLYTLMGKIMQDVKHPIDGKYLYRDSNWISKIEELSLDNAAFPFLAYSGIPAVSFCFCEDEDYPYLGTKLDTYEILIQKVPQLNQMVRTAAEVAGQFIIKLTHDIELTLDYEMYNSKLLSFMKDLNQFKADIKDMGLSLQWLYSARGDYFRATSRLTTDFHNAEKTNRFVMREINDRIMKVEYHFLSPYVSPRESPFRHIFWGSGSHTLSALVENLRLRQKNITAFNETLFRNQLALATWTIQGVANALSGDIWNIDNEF
Description: as §1, §2

human serum albumin = target: T5, human serum albumin (human, UniProt P02768 25-609); assay: kinetic ELISA on coated HSA (negative control); ND: not detected
T5 construct: also called HSA; HAS
T5 sequence (P02768 25-609 limits assumed): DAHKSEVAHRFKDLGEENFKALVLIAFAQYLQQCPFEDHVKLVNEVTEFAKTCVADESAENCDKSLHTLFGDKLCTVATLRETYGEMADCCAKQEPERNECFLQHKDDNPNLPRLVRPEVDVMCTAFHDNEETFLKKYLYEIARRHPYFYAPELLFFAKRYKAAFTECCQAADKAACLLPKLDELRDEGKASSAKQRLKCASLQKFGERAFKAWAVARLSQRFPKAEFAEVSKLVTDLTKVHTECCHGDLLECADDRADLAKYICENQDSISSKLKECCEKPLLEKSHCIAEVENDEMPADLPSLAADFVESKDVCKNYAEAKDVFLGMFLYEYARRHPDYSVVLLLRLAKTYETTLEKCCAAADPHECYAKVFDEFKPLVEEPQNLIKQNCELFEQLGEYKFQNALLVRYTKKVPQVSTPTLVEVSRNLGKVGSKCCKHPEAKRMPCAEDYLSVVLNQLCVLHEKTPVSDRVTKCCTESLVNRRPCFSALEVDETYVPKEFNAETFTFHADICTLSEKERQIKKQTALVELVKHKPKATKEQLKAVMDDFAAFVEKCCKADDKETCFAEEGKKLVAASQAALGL
Description: as §1, §2

[5] = target: human TrkB receptor (overexpressed on TrkB-NFAT-bla CHO-K1 reporter cells) (human, UniProt Q16620 32-822); assay: cell-based or functional assay
human TrkB receptor (overexpressed on TrkB-NFAT-bla CHO-K1 reporter cells), sequence (Q16620 32-822): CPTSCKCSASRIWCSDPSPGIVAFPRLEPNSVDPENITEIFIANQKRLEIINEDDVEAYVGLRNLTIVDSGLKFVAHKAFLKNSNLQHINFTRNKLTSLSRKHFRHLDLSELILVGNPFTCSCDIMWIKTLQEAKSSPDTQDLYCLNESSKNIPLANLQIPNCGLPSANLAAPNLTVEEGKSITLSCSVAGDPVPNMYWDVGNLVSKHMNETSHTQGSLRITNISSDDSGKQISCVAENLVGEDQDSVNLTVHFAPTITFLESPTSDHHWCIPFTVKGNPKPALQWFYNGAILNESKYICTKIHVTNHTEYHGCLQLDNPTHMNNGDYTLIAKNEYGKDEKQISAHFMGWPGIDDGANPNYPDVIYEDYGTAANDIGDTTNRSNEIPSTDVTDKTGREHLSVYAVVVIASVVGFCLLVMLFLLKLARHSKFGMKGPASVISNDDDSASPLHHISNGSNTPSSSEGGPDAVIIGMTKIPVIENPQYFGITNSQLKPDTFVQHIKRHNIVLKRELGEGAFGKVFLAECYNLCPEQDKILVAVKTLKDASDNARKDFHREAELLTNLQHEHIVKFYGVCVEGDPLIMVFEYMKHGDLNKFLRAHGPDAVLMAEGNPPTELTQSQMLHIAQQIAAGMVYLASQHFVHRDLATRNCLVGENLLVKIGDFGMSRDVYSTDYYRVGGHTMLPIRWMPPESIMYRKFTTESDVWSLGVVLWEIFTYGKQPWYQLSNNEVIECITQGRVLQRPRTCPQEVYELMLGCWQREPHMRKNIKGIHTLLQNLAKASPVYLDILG

[6] = target: T1, cynomolgus TfR-1 (transferrin receptor …); assay: kinetic ELISA on coated recombinant TfR-1, anti-human Fc-HRP detection, Vmax at 370 nm
Description: as §1, §2

[7] = target: T2, mouse TfR-1 (transferrin receptor 1), …; assay: as above
Description: as §1, §2

[8] = target: T3, human TfR-1 (transferrin receptor 1), …; assay: as above
Description: as §1, §2

[9] = target: T4, rat TfR-1 (transferrin receptor 1), …; assay: as above
Description: as §1, §2

T1 sequence (chain, as listed by the source): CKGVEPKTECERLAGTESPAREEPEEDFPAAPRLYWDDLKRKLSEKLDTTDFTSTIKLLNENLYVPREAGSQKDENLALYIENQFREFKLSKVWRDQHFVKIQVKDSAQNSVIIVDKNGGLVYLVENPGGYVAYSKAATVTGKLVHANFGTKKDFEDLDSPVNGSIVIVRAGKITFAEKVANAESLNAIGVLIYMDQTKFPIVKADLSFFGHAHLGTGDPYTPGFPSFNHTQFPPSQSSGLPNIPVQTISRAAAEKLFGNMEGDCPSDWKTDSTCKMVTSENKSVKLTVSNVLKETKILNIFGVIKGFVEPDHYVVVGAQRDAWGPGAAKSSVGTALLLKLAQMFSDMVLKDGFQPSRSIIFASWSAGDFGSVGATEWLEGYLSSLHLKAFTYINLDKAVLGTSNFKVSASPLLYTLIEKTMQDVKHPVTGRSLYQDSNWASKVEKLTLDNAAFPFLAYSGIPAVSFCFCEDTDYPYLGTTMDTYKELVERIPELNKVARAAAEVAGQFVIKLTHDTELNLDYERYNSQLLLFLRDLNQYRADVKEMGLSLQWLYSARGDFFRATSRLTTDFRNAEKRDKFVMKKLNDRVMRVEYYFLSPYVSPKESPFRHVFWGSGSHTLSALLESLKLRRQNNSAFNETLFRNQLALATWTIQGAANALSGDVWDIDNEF

B1: unconjugated TrkB-AAb (mouse-human chimeric 29D7 TrkB agonist antibody, human IgG1 LALA / human kappa) (antibody, V domains shown)
VH: EVQLQQSGPELVKPGASMKISCKTSGYSFTAYFMNWVKQSHGKSLEWIGRINPNNGDTFYTQKFKGKATLTVDKSSNTAHMELLSLTSEDSAIYYCGRRDYFGAMDYWGQGTSVTVSS
VL: AIVLIQSPATLSVTPGDSVSLSCRASQTISNNLHWYQQKSHESPRLLIKSASLAISGIPSRFSGSGSGTDFTLSISSVETEDFGMYFCQQSNSWPNTFGGGTKLEIKR
notes: VH and VL of mouse 29D7 fused to human IgG1 and human kappa constant regions; Copies of 2 are inferred from the IgG1 format; also called unconjugated TrkB antibody; TrkB 29D7
B1: no binding [1]; no binding [2]; no binding [3]. The binding result [4] was “no binding”, the binding result (human serum albumin) was “no binding” and the “maximal reporter response as percentage of the BDNF response (TrkB-NFAT-bla CHO-K1 cells)” value (from here on “maximal reporter response as percentage”) [5] was roughly 50%.

B2: VNAR-Fc control conjugate (TXB4 fused to the N-terminal end of the Fc domain) (Fc fusion)
chain: ARVDQTPQTITKETGESLTINCVLRDSNCALSSTYWYRKKSGSTNEENISKGGRYVETVNSGSKSFSLRINDLTVEDSGTYRCNVVQYPQYPNYFWCDVYGDGTAVTVNA
notes: also called control VNAR-Fc fusion; not shown: Fc domain
B2 was tested, and the binding result (human serum albumin) was “no binding”, the EC50 [6] was 1 nM and the EC50 [7] was 0.54 nM. For the same binder, the EC50 [8] was 0.78 nM and the EC50 [9] was 1.37 nM.

B3: TrkB(HC2N) conjugate (TXB4 VNAR fused to the N-terminus of the TrkB antibody heavy chain via a 3xG4S linker) (bispecific antibody, human IgG1, kappa, L234A L235A)
light: AIVLIQSPATLSVTPGDSVSLSCRASQTISNNLHWYQQKSHESPRLLIKSASLAISGIPSRFSGSGSGTDFTLSISSVETEDFGMYFCQQSNSWPNTFGGGTKLEIKRTVAAPSVFIFPPSDEQLKSGTASVVCLLNNFYPREAKVQWKVDNALQSGNSQESVTEQDSKDSTYSLSSTLTLSKADYEKHKVYACEVTHQGLSSPVTKSFNRGEC
heavy: not shown
notes: Copies of 2 are inferred from the IgG1 format; also called TXB4-TrkB-AAb conjugate
B3 was tested, and the binding result (human serum albumin) was “no binding”, the EC50 [6] was 0.79 nM and the EC50 [7] was 0.63 nM. The EC50 [8] was 0.74 nM, the EC50 [9] was 4.03 nM and the “agonist activity relative to TrkB(HV2N) (TrkB-NFAT-bla CHO-K1 cells)” value [5] was ~7 fold less than TrkB(HV2N). For the same binder, the “maximal reporter response as percentage” value [5] was roughly 50%.

B4: TrkB(HV2N) conjugate (TXB4 VNAR inserted between the CH1 and Fc domains of the TrkB antibody heavy chain) (bispecific antibody, IgG1)
light: B3 light
heavy: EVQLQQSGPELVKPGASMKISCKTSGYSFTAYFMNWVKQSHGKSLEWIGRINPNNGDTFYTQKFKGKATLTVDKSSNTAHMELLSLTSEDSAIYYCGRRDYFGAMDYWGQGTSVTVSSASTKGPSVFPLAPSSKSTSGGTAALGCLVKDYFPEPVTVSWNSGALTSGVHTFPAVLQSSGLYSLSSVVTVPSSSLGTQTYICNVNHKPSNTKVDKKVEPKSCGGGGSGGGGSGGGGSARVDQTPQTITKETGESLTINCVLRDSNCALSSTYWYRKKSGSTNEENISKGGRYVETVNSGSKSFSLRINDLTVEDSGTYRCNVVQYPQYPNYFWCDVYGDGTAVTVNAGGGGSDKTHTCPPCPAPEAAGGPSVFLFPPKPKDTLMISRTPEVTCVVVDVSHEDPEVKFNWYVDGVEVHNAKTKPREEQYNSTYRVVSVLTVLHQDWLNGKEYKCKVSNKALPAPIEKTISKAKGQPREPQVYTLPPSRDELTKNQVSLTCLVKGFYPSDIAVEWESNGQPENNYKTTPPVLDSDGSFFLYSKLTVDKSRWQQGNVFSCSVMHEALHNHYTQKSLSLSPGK
notes: Copies of 2 are inferred from the IgG1 format; also called TrkB1-TXB4; TXB4-TrkB-AAb conjugate
In the case of B4, the binding result (human serum albumin) is reported as “no binding”, the EC50 [6] is reported as 2.04 nM and the EC50 [7] is reported as 5.07 nM. For the same binder, the EC50 [8] was 5.3 nM, the EC50 [9] was 61 nM and the “maximal reporter response as percentage” value [5] was roughly 50%.
